# Laboratory results: doi:10.1101/774158
# Experiments:
# [1] = target: CDA-ZnF-KLF1 E321K (mouse) (UniProt P46099); experiment: EMSA
# WT-ZnF-KLF1 (mouse) = WT-ZnF-KLF1 (mouse) (UniProt P46099); experiment: EMSA
# WT-ZnF-KLF1 (mouse), sequence (P46099 275-358): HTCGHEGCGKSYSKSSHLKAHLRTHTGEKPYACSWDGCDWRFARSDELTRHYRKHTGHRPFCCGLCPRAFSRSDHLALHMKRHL
# CDA-ZnF-KLF1 E321K (mouse), sequence (P46099 275-358 E321K): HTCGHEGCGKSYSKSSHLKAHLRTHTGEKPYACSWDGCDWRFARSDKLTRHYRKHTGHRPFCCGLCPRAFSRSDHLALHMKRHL
substance,measurement,setting,value
beta-globin site,Kd,[1],238 µM
same,Kd,WT-ZnF-KLF1 (mouse),0.548 µM
